In paper PMC2615621 (Nucleic Acids Research, 2008):
Read-outs that look alike come from different tables or passages of the source.

B1: SEP3ΔC, C-terminally truncated SEP3, in vitro translated (domain or fragment)
chain: MGRGRVELKRIENKINRQVTFAKRRNGLLKKAYELSVLCDAEVALIIFSNRGKLYEFCSSSSMLRTLERYQKCNYGAPEPNVPSREALAVELSSQQEYLKLKERYDALQRTQRNLLGEDLGPLSTKELESLERQLDSSLKQIRALRTQFMLDQLNDLQSKERMLTETNKTLRLRLADGYQMPLQLNPN
modifications: 35S-methionine in some experiments

Columns and labels:
Experiment in all cases: native gel or EMSA
[1] = target: …3 (SEP3), full-length, in vitro translated (Arabidopsis thaliana) (UniProt O22456)
[2] = target: …3 (SEP3), full-length, in vitro translated (Arabidopsis thaliana) (UniProt O22456); remark: listed apart in the source
native gel or EMSA [3] = target: the molecule itself
native gel or EMSA [4] = target: the molecule itself; remark: listed apart in the source

Molecule	stoichiometry N [1]	apparent Kd1/Kd2 (cooperativity of two dimers on DNA) [2]	stoichiometry N [2]	stoichiometry N (native gel or EMSA [3])	apparent Kd1/Kd2 (cooperativity of two dimers on DNA) (native gel or EMSA [4])
…3 (SEP3), full-length, in vitro translated (from UniProt O22456 1-251) (natural protein)	4	83	2		
B1				2	89
